Experimental data: IntAct's records for PubMed 29039417

B1: BBSome complex member BBS1 (Homo sapiens), Q8NFJ9 (parent)
chain: MAAASSSDSDACGAESNEANSKWLDAHYDPMANIHTFSACLALADLHGDGEYKLVVGDLGPGGQQPRLKVLKGPLVMTESPLPALPAAAATFLMEQHEPRTPALALASGPCVYVYKNLRPYFKFSLPQLPPNPLEQDLWNQAKEDRIDPLTLKEMLESIRETAEEPLSIQSLRFLQLELSEMEAFVNQHKSNSIKRQTVITTMTTLKKNLADEDAVSCLVLGTENKELLVLDPEAFTILAKMSLPSVPVFLEVSGQFDVEFRLAAACRNGNIYILRRDSKHPKYCIELSAQPVGLIRVHKVLVVGSTQDSLHGFTHKGKKLWTVQMPAAILTMNLLEQHSRGLQAVMAGLANGEVRIYRDKALLNVIHTPDAVTSLCFGRYGREDNTLIMTTRGGGLIIKILKRTAVFVEGGSEVGPPPAQAMKLNVPRKTRLYVDQTLREREAGTAMHRAFQTDLYLLRLRAARAYLQALESSLSPLSTTAREPLKLHAVVQGLGPTFKLTLHLQNTSTTRPVLGLLVCFLYNEALYSLPRAFFKVPLLVPGLNYPLETFVESLSNKGISDIIKVLVLREGQSAPLLSAHVNMPGSEGLAAA
partner: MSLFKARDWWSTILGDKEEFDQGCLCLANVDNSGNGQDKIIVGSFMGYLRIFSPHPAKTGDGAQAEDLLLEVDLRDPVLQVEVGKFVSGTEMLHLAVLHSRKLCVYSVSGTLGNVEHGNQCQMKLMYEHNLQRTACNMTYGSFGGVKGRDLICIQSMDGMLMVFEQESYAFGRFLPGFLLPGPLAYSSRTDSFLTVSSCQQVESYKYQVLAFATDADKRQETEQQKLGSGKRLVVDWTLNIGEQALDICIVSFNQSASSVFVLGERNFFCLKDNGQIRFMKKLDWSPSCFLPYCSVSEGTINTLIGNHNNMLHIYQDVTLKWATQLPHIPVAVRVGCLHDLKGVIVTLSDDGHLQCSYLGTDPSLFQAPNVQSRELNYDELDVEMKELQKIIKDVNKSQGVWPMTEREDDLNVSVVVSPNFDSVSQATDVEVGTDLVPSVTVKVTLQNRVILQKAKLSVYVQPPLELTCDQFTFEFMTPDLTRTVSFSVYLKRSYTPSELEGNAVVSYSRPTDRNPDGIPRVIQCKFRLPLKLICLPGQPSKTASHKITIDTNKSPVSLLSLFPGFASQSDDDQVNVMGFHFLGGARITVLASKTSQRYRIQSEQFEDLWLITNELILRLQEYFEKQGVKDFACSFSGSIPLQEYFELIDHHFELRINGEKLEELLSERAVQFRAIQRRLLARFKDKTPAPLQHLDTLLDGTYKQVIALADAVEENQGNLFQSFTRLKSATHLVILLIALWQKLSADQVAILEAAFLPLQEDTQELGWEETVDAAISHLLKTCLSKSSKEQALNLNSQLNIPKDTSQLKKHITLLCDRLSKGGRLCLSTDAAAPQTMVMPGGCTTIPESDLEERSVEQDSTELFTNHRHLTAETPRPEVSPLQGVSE
B2: BBSome complex member BBS2 (Homo sapiens), Q9BXC9 (parent)
chain: MLLPVFTLKLRHKISPRMVAIGRYDGTHPCLAAATQTGKVFIHNPHTRNQHVSASRVFQSPLESDVSLLSINQAVSCLTAGVLNPELGYDALLVGTQTNLLAYDVYNNSDLFYREVADGANAIVLGTLGDISSPLAIIGGNCALQGFNHEGSDLFWTVTGDNVNSLALCDFDGDGKKELLVGSEDFDIRVFKEDEIVAEMTETEIVTSLCPMYGSRFGYALSNGTVGVYDKTSRYWRIKSKNHAMSIHAFDLNSDGVNELITGWSNGKVDARSDRTGEVIFKDNFSSAIAGVVEGDYRMDGHIQLICCSVDGEIRGYLPGTAEMRGNLMDTSAEQDLIRELSQKKQNLLLELRNYEENAKAELASPLNEADGHRGIIPANTRLHTTLSVSLGNETQTAHTELRISTSNDTIIRAVLIFAEGIFTGESHVVHPSIHNLSSSICIPIVPPKDVPVDLHLKAFVGYRSSTQFHVFESTRQLPRFSMYALTSLDPASEPISYVNFTIAERAQRVVVWLGQNFLLPEDTHIQNAPFQVCFTSLRNGGHLHIKIKLSGEITINTDDIDLAGDIIQSMASFFAIEDLQVEADFPVYFEELRKVLVKVDEYHSVHQKLSADMADHSNLIRSLLVGAEDARLMRDMKTMKSRYMELYDLNRDLLNGYKIRCNNHTELLGNLKAVNQAIQRAGRLRVGKPKNQVITACRDAIRSNNINTLFKIMRVGTASS
partner: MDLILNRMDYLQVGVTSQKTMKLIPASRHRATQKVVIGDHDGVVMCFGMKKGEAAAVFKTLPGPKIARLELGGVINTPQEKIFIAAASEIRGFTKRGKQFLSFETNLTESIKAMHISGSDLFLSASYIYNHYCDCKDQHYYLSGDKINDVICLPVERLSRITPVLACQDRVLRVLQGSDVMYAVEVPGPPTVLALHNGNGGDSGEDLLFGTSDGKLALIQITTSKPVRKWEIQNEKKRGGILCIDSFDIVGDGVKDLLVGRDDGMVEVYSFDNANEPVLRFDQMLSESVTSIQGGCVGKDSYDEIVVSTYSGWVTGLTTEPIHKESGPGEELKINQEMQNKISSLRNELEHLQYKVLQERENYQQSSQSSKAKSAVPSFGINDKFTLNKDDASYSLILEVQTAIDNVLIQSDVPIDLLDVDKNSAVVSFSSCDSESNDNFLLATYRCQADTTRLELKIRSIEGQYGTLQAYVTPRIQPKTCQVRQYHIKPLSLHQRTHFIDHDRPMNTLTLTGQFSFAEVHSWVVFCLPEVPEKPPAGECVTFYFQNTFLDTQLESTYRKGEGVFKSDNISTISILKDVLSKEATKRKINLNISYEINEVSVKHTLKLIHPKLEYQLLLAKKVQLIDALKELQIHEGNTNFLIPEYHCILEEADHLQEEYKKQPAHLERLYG

Variants of: B1
Settings: with pthb1_human BBS9, Q3SYG4

effect of a mutation on the interaction | Variant
with no effect | R512H
disrupting interaction strength | L503H

Variants of: B1
Settings: with pthb1_human BBS9, Q3SYG4
Remark: another data set of the same source

effect of a mutation on the interaction | Variant
with no effect | G589K
with no effect | L590E
with no effect | L590A
with no effect | L590K
with no effect | A591K
with no effect | A591E
with no effect | A593K
with no effect | A593E
with no effect | A592K
with no effect | A592E

Variants of: B2
Settings: with BBS7, Q8IWZ6-2

effect of a mutation on the interaction | Variant
with no effect | L348K
with no effect | L348E
with no effect | L348A
with no effect | A364K
with no effect | A364E
with no effect | D371E
with no effect | D371K
with no effect | D371A
with no effect | H384E
with no effect | H384K
disrupting interaction strength | H384P
with no effect | H384A
with no effect | A370E
with no effect | A370K
with no effect | A333K
with no effect | A333E
with no effect | N347E
with no effect | N347K
with no effect | N347A
with no effect | D330E
with no effect | D330K
with no effect | D330A
with no effect | A359E
with no effect | A359K
with no effect | I338K

effect of a mutation on the interaction | Variant
with no effect | I338E
with no effect | I338A
with no effect | R382E
with no effect | R382K
with no effect | R382A
with no effect | R374K
with no effect | R374A
with no effect | R374E
with no effect | G375A
with no effect | G375E
with no effect | G375K
with no effect | P378K
with no effect | P378E
with no effect | P378A
with no effect | L341A
with no effect | L341K
with no effect | L341E
with no effect | Q343E
with no effect | Q343K
with no effect | Q343A
with no effect | E369K
with no effect | E369A
with no effect | H373A
with no effect | H373E
with no effect | H373K

effect of a mutation on the interaction | Variant
with no effect | E357K
with no effect | E357A
with no effect | S332E
with no effect | S332A
with no effect | S332K
with no effect | T385A
disrupting interaction strength | T385E
with no effect | T385K
with no effect | D336K
with no effect | D336E
with no effect | D336A
disrupting interaction strength | L383E
with no effect | L383K
disrupting interaction strength | L383A
with no effect | E362K
with no effect | E362A
with no effect | S342A
with no effect | S342K
with no effect | S342E
with no effect | R325E
with no effect | R325A
with no effect | R325K
with no effect | E334K
with no effect | E334A
with no effect | E340A

effect of a mutation on the interaction | Variant
with no effect | E340K
with no effect | E356K
with no effect | E356A
with no effect | A361K
with no effect | A361E
with no effect | G326A
with no effect | G326K
with no effect | G326E
with no effect | Q346A
with no effect | Q346K
with no effect | Q346E
with no effect | L350E
with no effect | L350K
with no effect | L350A
with no effect | L337E
with no effect | L337A
with no effect | L337K
with no effect | I376A
with no effect | I376K
with no effect | I376E
disrupting interaction strength | I376F
with no effect | T331K
with no effect | T331E
with no effect | T331A
with no effect | N368E

effect of a mutation on the interaction | Variant
with no effect | N368A
with no effect | N368K
with no effect | L328A
with no effect | L328K
with no effect | L328E
with no effect | Y355E
with no effect | Y355A
with no effect | Y355K
with no effect | L349E
with no effect | L349A
with no effect | L349K
with no effect | L363K
with no effect | L363A
with no effect | L363E
with no effect | M329E
with no effect | M329K
with no effect | M329A
with no effect | Q335K
with no effect | Q335A
with no effect | Q335E
with no effect | T381E
with no effect | T381A
with no effect | T381K
with no effect | P366K
with no effect | P366E

effect of a mutation on the interaction | Variant
with no effect | P366A
with no effect | E351K
with no effect | E351A
with no effect | S365E
with no effect | S365K
with no effect | S365A
with no effect | A379K
with no effect | A379E
with no effect | L367A
with no effect | L367E
with no effect | L367K
with no effect | K345A
with no effect | K345E
with no effect | I377A
with no effect | I377E
disrupting interaction strength | I377R
with no effect | I377K
with no effect | R353E
with no effect | R353K
with no effect | R353A
with no effect | R339E
with no effect | R339K
with no effect | R339A
with no effect | N380K
disrupting interaction strength | N380E

effect of a mutation on the interaction | Variant
with no effect | N380A
with no effect | K360A
with no effect | K360E
disrupting interaction strength | K360P
with no effect | G372E
with no effect | G372A
with no effect | G372K
with no effect | N327K
with no effect | N327A
with no effect | N327E
with no effect | N354K
with no effect | N354A
with no effect | N354E
with no effect | N358K
with no effect | N358E
with no effect | N358A
with no effect | L352A
with no effect | L352K
with no effect | L352E
with no effect | K344A
with no effect | K344E
